Tested on: MS2 coat protein
Assay: apparent KD of MS2 coat protein; designed switch direction (-1 OFF switch, 1 ON switch): -1; higher = weaker reporter binding
In short: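 The reported apparent KD is a per-design median over clusters, from curve fits of normalised cluster fluorescence. Protein titrations used SNAP-549-labelled MS2 coat protein, doubled from 0.7 or 1.5 nM to 3 µM, in Tris-HCl pH 7.5 buffer with KCl, MgCl2, BSA, DTT, tRNA and Tween-20, with no input, 200 uM small-molecule ligand, or an oligonucleotide input. The RNA switches were transcribed on Illumina chips by stalled E. coli RNA polymerase.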

[1] = input ligand: microRNA oligo, concentration not stated
[2] = Eterna round: R95, input ligand: microRNA oligo, concentration not stated
[3] = Eterna round: R95, input ligand: FMN 200 uM
[4] = Eterna round: R95, input ligand: none

Sequence: GCCGAAAAUGUGAGGAUAUACCUAUGGAAACAUAGGUAGAAGGCACAUGAGGAUCACCCAUGUUCCUCAUCGGC [Mat - Exclusion 4 - Eli Mod - D17] (Eterna round: R97, puzzle: Brourd's mod of Exclusion 4)
- apparent KD of MS2 coat protein (input ligand: FMN 200 uM): 729 nM
- apparent KD of MS2 coat protein (input ligand: none): 120 nM

Sequence: GUUUUAUAUGAAGGAUAUACUUAACAUGAGGAUCACCCAUGUGGUGUUGUGAGUGAGUGAGUUUAGUAGAAGGUCAAUUAUUUU [JMF's solution 33] (Eterna round: R96, puzzle: Exclusion NG 2)
- apparent KD of MS2 coat protein (input ligand: FMN 200 uM): 409 nM
- apparent KD of MS2 coat protein [1]: 174 nM
- apparent KD of MS2 coat protein (input ligand: none): 184 nM

Sequence: CCUUCCCGAGGAUAUACAUGAGGAUCACCCAUGUGAUCCUAAGGCUGAUCAAGCCUAUGUAGAAGGCGCAAAUC [salish99_ex3_r4_006] (Eterna round: R97, puzzle: Exclusion 3)
- apparent KD of MS2 coat protein (input ligand: FMN 200 uM): 35.1 nM
- apparent KD of MS2 coat protein (input ligand: none): 38.4 nM

Sequence: CCUCGACAUGAGGAUCACCCAUGUAAGGAUAUGUUGACGAGCCUGAAAAGGCUGGUCAACAGAAGGUAUAUGUA [Exclusion 1 (Mod 1b.1 solution 16 by Eternabot)] (Eterna round: R97, puzzle: Exclusion 1)
- apparent KD of MS2 coat protein (input ligand: FMN 200 uM): 112 nM
- apparent KD of MS2 coat protein (input ligand: none): 28.4 nM

Sequence: ACUAGAUGAGGAUAUGCACAUUUUAGUGUUCCUCUAGAUUAACAUGAGGAUCACCCAUGUAGAAGGCGUCAUUU [Exclusion 2 - 13] (puzzle: Exclusion 2)
- apparent KD of MS2 coat protein [2]: 69.7 nM

Sequence: ACAAGGAUGAAGGAUAUGGAAGAGUGGGAGCCUCCAGAAGGUCGUACAUGAGGAUCACCCAUGUAUUGGGCUUA [Eternabot (L2) Solution 38] (Eterna round: R97, puzzle: Exclusion 6)
- apparent KD of MS2 coat protein (input ligand: FMN 200 uM): 22.5 nM
- apparent KD of MS2 coat protein (input ligand: none): 21 nM

Sequence: GUGUUUCGUGUAGGAUAUGUUUGUGGGUCGCGGGCAGAAGGACAUGAGGAUCACCCAUGUUGCGGGUUCGGUUUGUGCGGGCGC [-22, -20 kcal and 14% A] (Eterna round: R96, puzzle: Exclusion NG 1)
- apparent KD of MS2 coat protein (input ligand: FMN 200 uM): 23.6 nM
- apparent KD of MS2 coat protein [1]: 17.1 nM
- apparent KD of MS2 coat protein (input ligand: none): 22.3 nM

Sequence: GAUCAACAUGAGGAUCACCCAUGUGAGGAUAUGAUACUAUGUACUUCGGUACAUAGUAUCAGAAGGCAUAUAAA [Ex1-3: 37] (puzzle: Exclusion 1)
- apparent KD of MS2 coat protein [2]: 40.4 nM

Sequence: UUCCUACUUGAGGAUCACCCAAGUCAGGAUAUCCAUAACCGACACUCUUUUCGGAGCGGGAGAAGGGACUUGGC [Arbedi] (Eterna round: R97, puzzle: Exclusion 1)
- apparent KD of MS2 coat protein (input ligand: FMN 200 uM): 119 nM
- apparent KD of MS2 coat protein (input ligand: none): 52.9 nM

Sequence: UUGUUACGAUUAGGAUAUUAUUGAUUGGACAGUAUGAUUUACAUGAGGAUCACCCAUGUUACUUUUAAGAAGGAAUCGUAUUAU [JR_ExcNG2_Sub090] (Eterna round: R96, puzzle: Exclusion NG 2)
- apparent KD of MS2 coat protein [1]: 14.8 nM

Sequence: UACAUGAGGAUCACCCAUGUUUUGUCGUGUAUGGUACCCGUUUAGGAUAUCGUGUUAUUGGACCGCGAGAAGGAGAGUAUCAAU [Excl-NG3-LRO04] (Eterna round: R96, puzzle: Exclusion NG 3)
- apparent KD of MS2 coat protein (input ligand: FMN 200 uM): 26.5 nM
- apparent KD of MS2 coat protein [1]: 22.8 nM
- apparent KD of MS2 coat protein (input ligand: none): 29.4 nM

Sequence: AAUAACAGAGGAUAUACUAUUUUAUGUAUUUAUUAUUUUAAACAUGAGGAUCACCCAUGUAGAAGGCUGAGUAA [JMF 27] (puzzle: Exclusion 2)
- apparent KD of MS2 coat protein [2]: 22.2 nM

Sequence: GUUUCACAUGAGGAUCACCCAUGUGAGGAUAUCCAUUUGUUAACCGUAGUUAAUAGAUGGAGAAGGCGCGUGAU [JRxlusion 6 - Jieux - Exclusion 1] (Eterna round: R97, puzzle: Exclusion 1)
- apparent KD of MS2 coat protein (input ligand: FMN 200 uM): 66.6 nM
- apparent KD of MS2 coat protein (input ligand: none): 62.9 nM

Sequence: AAUAACAGAGGAUAUACUAUAAUAUGAAUAAAAUAAAUAAAACAUGAGGAUCACCCAUGUAGAAGGCUGAAUAA [JMF's Not so obvious solution 10] (puzzle: Exclusion 2)
- apparent KD of MS2 coat protein [3]: 17.1 nM
- apparent KD of MS2 coat protein [2]: 20 nM
- apparent KD of MS2 coat protein [4]: 21.1 nM

Sequence: GUCGCAAUGCAGGAUAUCCUGCUAUUCAAGGGAGGAGAAGGGCAGACAUGAGGAUCACCCAUGUGGUCCGUGCC [Eternabot (L1) Solution 3] (Eterna round: R97, puzzle: Exclusion 6)
- apparent KD of MS2 coat protein (input ligand: FMN 200 uM): 160 nM
- apparent KD of MS2 coat protein (input ligand: none): 170 nM

Sequence: ACAAGCUCUGUGGGUGGUGACAUGAGGAUCACCCAUGUUUUGCUCGUCUUGUCCCGGGCCCGGCGCCCGGGCCCGGG [-40.4, -69.3, A 12%] (Eterna round: R97, puzzle: Sensor, turn-off variant 1)
- apparent KD of MS2 coat protein (input ligand: FMN 200 uM): 625 nM
- apparent KD of MS2 coat protein (input ligand: none): 1340 nM

Sequence: GGGAACCGAGGAUAUCAGUACACGCACAUGAGGAUCACCCAUGUGCUCCUCGGUGCUGUCUGAGAAGGCGGUGAGA [Raonxe] (Eterna round: R97, puzzle: Exclusion 5)
- apparent KD of MS2 coat protein (input ligand: FMN 200 uM): 26.9 nM
- apparent KD of MS2 coat protein (input ligand: none): 17.6 nM

Sequence: AGAAUGCGAGGAUAUACAGCAAGAUAGCAAAAGACCCUCCAACAUGAGGAUCACCCAUGUAGAAGGCGCAUUCA [Eternabot (Original) Solution 19] (Eterna round: R97, puzzle: Exclusion 2)
- apparent KD of MS2 coat protein (input ligand: FMN 200 uM): 110 nM
- apparent KD of MS2 coat protein (input ligand: none): 109 nM

Sequence: GCUUCGGCAGGAUAUACAUGAGGAUCACCCAUGUGCUUCGGCUUGAUCAAGUUGAAGUGUAGAAGGGUUGAAGU [-25.5, -22.5 kcal, 26% A, 3 bis, 3 bis] (Eterna round: R97, puzzle: Exclusion 3)
- apparent KD of MS2 coat protein (input ligand: FMN 200 uM): 36.8 nM
- apparent KD of MS2 coat protein (input ligand: none): 78.7 nM

Sequence: AACUCACGUUCAGGAUAUCGCGUUCCAAAGACAUGAGAAGGGAACAUGAGGAUCACCCAUGUGCCCGGUCUCAGACCGGGCUUC [Cetein] (Eterna round: R96, puzzle: Exclusion NG 1)
- apparent KD of MS2 coat protein (input ligand: FMN 200 uM): 328 nM
- apparent KD of MS2 coat protein [1]: 76 nM
- apparent KD of MS2 coat protein (input ligand: none): 88.8 nM

Sequence: CCAAGAAUAGGAUAUACACCAUGUCAGCUUAUAUACAACGAACAUGAGGAUCACCCAUGUAGAAGGGUUCUCUC [Exclusion-2-#1] (Eterna round: R97, puzzle: Exclusion 2)
- apparent KD of MS2 coat protein (input ligand: FMN 200 uM): 430 nM
- apparent KD of MS2 coat protein (input ligand: none): 479 nM

Sequence: AAGGCCUGAGGAUAUCAGAGUCUAAACAUGAGGAUCACCCAUGUGAACCUGGUCAGUCUGUGAGAAGGUAGUGCUC [Tequat] (puzzle: Exclusion 5)
- apparent KD of MS2 coat protein [3]: 39.5 nM
- apparent KD of MS2 coat protein [2]: 39.8 nM
- apparent KD of MS2 coat protein [4]: 57.3 nM

Sequence: CCGUCACAUGAGGAUCACCCAUGUCAGGAUAUCUCAGUGCAUCCACACGGACGCAUCAAGAGAAGGGACAAAAC [Vinxlusion 6 - Jieux - Exclusion 1] (Eterna round: R97, puzzle: Exclusion 1)
- apparent KD of MS2 coat protein (input ligand: FMN 200 uM): 47.9 nM
- apparent KD of MS2 coat protein (input ligand: none): 34.8 nM

Sequence: CCUCCCUGAGGAUAUCCACCCUCAUACAUGAGGAUCACCCAUGUUCAUCCGUGGGUACCCGGAGAAGGCAGAUUUC [Megrez-a] (Eterna round: R97, puzzle: Exclusion 5)
- apparent KD of MS2 coat protein (input ligand: FMN 200 uM): 41.9 nM
- apparent KD of MS2 coat protein (input ligand: none): 33.1 nM

Sequence: CGGGACCGAGGAUAUACAUGUGGACUCGAGUUGACGUUGGGACAUGAGGAUCACCCAUGUAGAAGGCGGAUCUU [Eternabot (L2) Solution 57] (Eterna round: R97, puzzle: Exclusion 2)
- apparent KD of MS2 coat protein (input ligand: FMN 200 uM): 270 nM
- apparent KD of MS2 coat protein (input ligand: none): 741 nM

Sequence: GUAAUACAUGAGGAUCACCCAUGUAAGGAUAUGCUAGCGGUCGGCUGACUGACUGCUAGCAGAAGGUACAUGAU [Mat - Mod of JL D77] (puzzle: Exclusion 1)
- apparent KD of MS2 coat protein [2]: 87.2 nM

Sequence: AGCGUGGAGACAGGAUAUGAGAAUAGAUAGAACUCAGAAGGGUCACAUGAGGAUCACCCAUGUAAAGUCUUGAGGCUGCGUGGU [Prohibition 7 - Jieux - Exclusion NG 1] (Eterna round: R96, puzzle: Exclusion NG 1)
- apparent KD of MS2 coat protein (input ligand: FMN 200 uM): 341 nM
- apparent KD of MS2 coat protein [1]: 74.1 nM
- apparent KD of MS2 coat protein (input ligand: none): 109 nM

Sequence: UUUAUCCGAGGAUAUACAGAAUGAAUGUGAAAUGAAUGAUGACAUGAGGAUCACCCAUGUAGAAGGCGGAUAUA [Default title] (Eterna round: R97, puzzle: Exclusion 2)
- apparent KD of MS2 coat protein (input ligand: FMN 200 uM): 404 nM
- apparent KD of MS2 coat protein (input ligand: none): 57.8 nM

Sequence: GCUAUGGGAGGAUAUACAUGAGGAUCACCCAUGUGUAGAGCAUACGCGCGCAUUAACAGUAGAAGGCCCUGCGU [Eternabot (L1) Solution 23] (Eterna round: R97, puzzle: Exclusion 3)
- apparent KD of MS2 coat protein (input ligand: FMN 200 uM): 50.7 nM
- apparent KD of MS2 coat protein (input ligand: none): 49.4 nM

Sequence: CGGGACGUCCUGAUAAUAAGACAUGAGGAUCACCCAUGUCGGCAGGAUAUCAGUCCUUACGGUUAUGAGAAGGGUCGGCAACCA [Quatis] (Eterna round: R96, puzzle: Exclusion NG 3)
- apparent KD of MS2 coat protein (input ligand: FMN 200 uM): 10.9 nM
- apparent KD of MS2 coat protein [1]: 9.05 nM
- apparent KD of MS2 coat protein (input ligand: none): 11.6 nM

Sequence: AGUCGAAAGAACCACAUGGACAUGAGGAUCACCCAUGUGCAAGCCUUUUUCUCGUCACUAUCGUCAAAAGACGAUAG [Omei Mir Offv1 A5] (Eterna round: R97, puzzle: Sensor, turn-off variant 1)
- apparent KD of MS2 coat protein (input ligand: FMN 200 uM): 168 nM
- apparent KD of MS2 coat protein (input ligand: none): 227 nM

Sequence: GAUUAUGCGAGCUUUAGGGACAUGAGGAUCACCCAUGUUCGUCUUAUUGGUCUGGAUACGCUAACAUACCUAAAUCU [JMF 38] (puzzle: Sensor v3, turn-off variant 1)
- apparent KD of MS2 coat protein [3]: 21.5 nM
- apparent KD of MS2 coat protein [2]: 30.6 nM
- apparent KD of MS2 coat protein [4]: 24.8 nM

Sequence: UAUAGUUCAGGAUAUGAUGAAUUAAACAUGAGGAUCACCCAUGUAGAUCCUGAAUUAACAUCAGAAGGGAAUAUUU [JL-ex5-4.49 Brourd mod] (Eterna round: R97, puzzle: Exclusion 5)
- apparent KD of MS2 coat protein (input ligand: FMN 200 uM): 17.4 nM
- apparent KD of MS2 coat protein (input ligand: none): 14.3 nM

Sequence: UUUAGUUCAGGAUAUGUAGAUUUAAACAUGAGGAUCACCCAUGUAGAUCCUGAUCCUGCUACAGAAGGGAACAUUU [Exclusion 5: 2:a mod1] (Eterna round: R97, puzzle: Exclusion 5)
- apparent KD of MS2 coat protein (input ligand: FMN 200 uM): 72.9 nM
- apparent KD of MS2 coat protein (input ligand: none): 24.3 nM
